Measurements as given in patent US20240317846A1 (priority 2021, published 2024).
Values joined by “and” are separate entries in the source; they are usually repeats but may differ in a detail not shown here. Equal entries are not always repeated. “Also recorded” adds a separate entry of the source. Where two headings read alike, the source gives them in different places. Marks after values point to notes of the source that are not given here.

How the values were obtained:
COVID-19 [1] = conditions: cited from earlier work; for Median days to discharge: published lopinavir-ritonavir cohort
COVID-19 [2] = conditions: non-significant trend; cited from earlier work
[3] = test system: COVID-19 associated chronic ARDS; assay type: in vivo, human
Procedure: Hospitalized subject with confirmed COVID-19 pneumonia and established risk factors for poor outcomes was treated in the ICU for 12 weeks using standard supportive care for chronic acute respiratory distress syndrome (ARDS). […] Patient characteristics, clinical and laboratory outcomes, and adverse events were recorded through duration of hospitalization.

[4] = Pre-clinical toxicology program; assay type: in vivo; conditions: data not shown
[5] = biological target: glycosylated human GM-CSF (Homo sapiens, UniProt P04141); assay: Binding affinity for GM-CSF
[6] = Four completed clinical trials (healthy volunteers, asthma, rheumatoid arthritis, chronic myelomonocytic leukemia); assay type: in vivo, human; conditions: 113 individuals received lenzilumab
[7] = test system: severe COVID-19 pneumonia; conditions: for Time to Recovery: placebo 8
SARS-CoV-2 infection = assay type: in vivo, human; conditions: paper examples
[8] = test system: severe and critical COVID-19 pneumonia
[9] = test system: severe COVID-19 pneumonia
[10] = lenzilumab alone or in the combination of the example
[11] = one patient, 48 hours post-lenzilumab vs pretreatment
[12] = Lenzilumab group n = 12, control 11
[13] = repeated measures ANOVA, P<0.001

Sequence of glycosylated human GM-CSF (P04141 18-144): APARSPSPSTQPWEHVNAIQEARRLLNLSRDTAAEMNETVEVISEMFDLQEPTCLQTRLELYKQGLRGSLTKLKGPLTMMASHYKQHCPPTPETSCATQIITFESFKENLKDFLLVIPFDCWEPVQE

Molecule: lopinavir and ritonavir [Lopinavir/Ritonavir]
- Mean days to discharge (COVID-19 [1]; published cohorts): 13 days
- Median days to discharge (COVID-19 [1]): 13** days
- Median days to discharge (COVID-19 [1]; listed as Lopinavir-Ritonavir): 13 days

Molecule: Mavrilimumab: monoclonal antibody that acts as a GM-CSF alpha-receptor antagonist
- Improvement in survival without requirement for supplemental oxygen (COVID-19 [2]): 48%

B1: Lenzilumab: first-in-class Humaneered recombinant monoclonal antibody targeting human GM-CSF, derived from mouse antibody LMM102 (antibody, chains of the INN, looked up, V domains shown)
VH: QVQLVQSGAEVKKPGASVKVSCKASGYSFTNYYIHWVRQAPGQRLEWMGWINAGNGNTKYSQKFQGRVTITRDTSASTAYMELSSLRSEDTAVYYCVRRQRFPYYFDYWGQGTLVTVSS
VL: EIVLTQSPATLSVSPGERATLSCRASQSVGTNVAWYQQKPGQAPRVLIYSTSSRATGITDRFSGSGSGTDFTLTISRLEPEDFAVYYCQQFNKSPLTFGGGTKVEIK
- Oxygen demand one week post lenzilumab ([3]; person, lenzilumab on week 13 of hospitalization): decreased from high-flow to low-flow nasal cannula
- Infusion-related or systemic side effects ([3]; single patient): No infusion-related or systemic side effects
- Lymphopenia post lenzilumab ([3]; single patient): appeared to improve
- Time from lenzilumab to discharge home ([3]; single patient, discharged on 4L nasal cannula): Sixteen
- Survival, Kaplan-Meier event estimate (mortality) (COVID-19 pneumonia; mITT, lenzilumab arm, day 28, placebo 13.9): 9.6%
- Ventilator-Free Survival, Kaplan-Meier event estimate (IMV and/or death) (COVID-19 pneumonia; mITT, lenzilumab arm, day 28, placebo 22.1): 15.6%
- SAEs attributed to lenzilumab (COVID-19 pneumonia; phase 3 trial): none were attributed to lenzilumab
- Safety and tolerability (COVID-19 pneumonia; phase 3 trial): safe and well-tolerated
- Increased likelihood of survival without IMV (COVID-19 pneumonia; relative to placebo, mITT): 54%
- Increased likelihood of survival (COVID-19 pneumonia; relative to placebo, not statistically significant): 39% (NS)
- No Observed Adverse Effect Level (NOAEL) [4]: > 100 mg/kg/week
- Binding affinity [5]: picomolar range
- Kd [5]: 0.025 nM
- Off-rate [5]: slow off-rate
- Safety in completed clinical development studies [6]: No treatment emergent serious adverse events (SAEs) or Suspected Unexpected Serious Adverse Reactions (SUSARSs); also recorded: very well tolerated
- Acute kidney injury ([7]; Grade ≥3, Lenzilumab N = 255): 5 (2.0) n (%)
- Acute respiratory distress syndrome ([7]; Grade ≥3, Lenzilumab N = 255): 4 (1.6) n (%)
- Acute respiratory failure ([7]; Grade ≥3, Lenzilumab N = 255): 18 (7.1) n (%)
- Cardiac arrest ([7]; Grade ≥3, Lenzilumab N = 255): 8 (3.1) n (%)
- Cardiac disorders ([7]; Grade ≥3, Lenzilumab N = 255): 15 (5.9) n (%)
- Cardio-respiratory arrest ([7]; Grade ≥3, Lenzilumab N = 255): 3 (1.2) n (%)
- General disorders and administration site conditions ([7]; Grade ≥3, Lenzilumab N = 255): 4 (1.6) n (%)
- Hypotension ([7]; Grade ≥3, Lenzilumab N = 255): 2 (0.8) n (%)
- Hypoxia ([7]; Grade ≥3, Lenzilumab N = 255): 15 (5.9) n (%)
- Infections and infestations ([7]; Grade ≥3, Lenzilumab N = 255): 10 (3.9) n (%)
- Multiple organ dysfunction syndrome ([7]; Grade ≥3, Lenzilumab N = 255): 3 (1.2) n (%)
- Pneumonia bacterial ([7]; Grade ≥3, Lenzilumab N = 255): 0 (0.0) n (%)
- Pulmonary embolism ([7]; Grade ≥3, Lenzilumab N = 255): 5 (2.0) n (%)
- Renal and urinary disorders ([7]; Grade ≥3, Lenzilumab N = 255): 5 (2.0) n (%)
- Respiratory failure ([7]; Grade ≥3, Lenzilumab N = 255): 24 (9.4) n (%)
- Respiratory, thoracic and mediastinal disorders ([7]; Grade ≥3, Lenzilumab N = 255): 64 (25.1) n (%)
- Sepsis ([7]; Grade ≥3, Lenzilumab N = 255): 2 (0.8) n (%)
- Septic shock ([7]; Grade ≥3, Lenzilumab N = 255): 5 (2.0) n (%)
- Shock ([7]; Grade ≥3, Lenzilumab N = 255): 3 (1.2) n (%)
- Vascular disorders ([7]; Grade ≥3, Lenzilumab N = 255): 10 (3.9) n (%)
- Kaplan-Meier Estimate of Failure to Achieve SWOV ([7]; ITT (n = 520)): 18.9%
- Kaplan-Meier Estimate of Failure to Achieve SWOV ([7]; ITT subgroup n = 338, placebo 27.8%): 17.8%
- Kaplan-Meier Estimate of Failure to Achieve SWOV ([7]; ITT, CRP <150 mg/L and age <85 (n = 359), placebo 22.6%): 11.5%
- Safety and tolerability ([7]; LIVE-AIR): safe and well tolerated
- Any AE ≥ Grade 3 ([7]; Lenzilumab N = 255): 68 (26.7) n (%)
- Serum CRP levels following treatment ([7]; from two days after administration for 28 days, only in baseline CRP<150 mg/L): decreased CRP levels
- Attributable serious adverse events ([7]; incl. hematologic, liver enzyme abnormalities, pulmonary alveolar proteinosis, infection): no attributable serious adverse events
- Time to Recovery ([7]; mITT (n = 236)): 8 median days
- Mortality ([7]; mITT (n = 236), placebo 13.9): 9.6%
- Incidence IMV, ECMO or death ([7]; mITT (n = 236), placebo 21.4): 15.4%
- Kaplan-Meier Estimate of Failure to Achieve SWOV ([7]; mITT (n = 479), Day 28, placebo 22.1%): 15.6%
- Kaplan-Meier Estimate of Failure to Achieve SWOV ([7]; mITT subgroup n = 331 (remdesivir plus steroids per text), placebo 26.9%): 16.3%
- Kaplan-Meier Estimate of Failure to Achieve SWOV ([7]; mITT, >2 days prior (n = 165), placebo 14.4%): 13.7%
- Kaplan-Meier Estimate of Failure to Achieve SWOV ([7]; mITT, CRP <150 mg/L and age <85 (n = 336), placebo 21.1%): 8.5%
- Time to Recovery ([7]; mITT, CRP <150 mg/L, Age <85 (n = 157)): 7 median days
- Mortality ([7]; mITT, CRP <150 mg/L, Age <85 (n = 157), placebo 13.8): 6.6%
- Incidence IMV, ECMO or death ([7]; mITT, CRP <150 mg/L, Age <85 (n = 157), placebo 19.5): 7.2%
- Improvement in Time to Recovery ([7]; mITT, CRP<150 mg/L and age<85): 36%
- Kaplan-Meier Estimate of Failure to Achieve SWOV ([7]; mITT, hospitalized 2 days prior or less (n = 297), placebo 27.6%): 16.5%
- Infusion-related reactions ([7]; safety population): no infusion-related reactions
- Serious adverse events, subjects ([7]; safety population, placebo 29.6%): 24.7%
- Adverse events ≥Grade 3, subjects ([7]; safety population, placebo 32.7%): 26.7%
- Improvement in SWOV ([7]; subjects hospitalized <2 days): 88%
- 2 point improvement in the NIAID eight point ordinal hospital scale (SARS-CoV-2 infection): faster
- Number of hospital days (SARS-CoV-2 infection): reduction
- Permanent pulmonary function impairment (SARS-CoV-2 infection): reduction
- Time to recovery (6, 7, or 8 on the eight point ordinal hospital scale) (SARS-CoV-2 infection): faster
- Mortality rates (SARS-CoV-2 infection; [10]): reduction
- Patients requiring ICU admission (SARS-CoV-2 infection; [10]): reduction
- Patients requiring mechanical ventilation (SARS-CoV-2 infection; [10]): reduction
- Median time to discharge post-lenzilumab ([8]; 11 discharged patients): 5 days
- Infusion reactions ([8]; 12 patients): no infusion reactions
- Median time to a 2-point clinical improvement ([8]; 12 patients): 5 days
- Patients discharged ([8]; 12 patients): 11 of 12
- Patients discharged on home oxygen ([8]; 12 patients): 42%
- Patients who required invasive mechanical ventilation ([8]; 12 patients): 8.3%
- Clinical improvement of at least 2 points on the 8-point ordinal clinical endpoints scale, proportion of patients ([8]; 12 patients, 600 mg IV every 8 h x3): 92% and 91.7%
- Mean IL-6 on day 3 following lenzilumab ([8]; baseline 26.8 pg/mL): 16.1 pg/mL
- Mean CRP on day 3 following lenzilumab ([8]; baseline 137.3 mg/L): 51.2 mg/L
- Absolute lymphocyte count on day 3 ([8]; baseline 0.89): 1.14e+09 L⁻¹
- Mean absolute neutrophil count on day 3 post lenzilumab ([8]; baseline 5.1): 4.8e+09 L⁻¹
- Mean hemoglobin on day 3 post lenzilumab ([8]; baseline 12.9): 11.4 g/dL
- Mean temperature at day 3 ([8]; baseline 37.95): 36.97
- Proportion of patients with SpO2/FiO2<315 at the end of observation ([8]; baseline 67%): 8%
- Mean platelet count on day 3 post lenzilumab ([8]; baseline 217.7): 2.618e+11 L⁻¹
- D-dimer after lenzilumab ([8]; individual patients 2 and 4): 1507 ng/mL and 1802 ng/mL
- Ferritin after lenzilumab, at discharge ([8]; individual patients 3 and 5): 571 µg/L and 1223 µg/L
- Patients whose SpO2/FiO2 improved to >315 on day 1 post-lenzilumab ([8]; of 8 patients with SpO2/FiO2<315 at baseline): four
- Patients with a 2-point improvement on 8-point ordinal scale ([8]; of 12 patients): 1 patient
- Patients with ≥3-point improvement on 8-point ordinal scale ([8]; of 12 patients): 10 patients
- Cytokines involved in cytokine storm (G-CSF, MDC, GM-CSF, IL-1α, IFN-γ, IL-7, FLT-3L, IL-1rα, IL-6, IL-12p70) [8, 11]: significant reduction
- LDH after lenzilumab ([8]; patient 4, hospital day 3): 388 U/L
- Range of days to discharge ([8]; patient 9 pending): (3-14)*** days
- Patients requiring mechanical invasive ventilation ([8]; patients 1-5): None
- Time to fever resolution after lenzilumab administration ([8]; patients febrile at baseline): ≤ 48 h
- Time to clinical two point improvement, faster than comparator antivirals ([8]; vs Remdesivir, Lopinavir-Ritonavir, Tocilizumab cohorts): more than 50%
- Infusion reactions ([9]; 12 patients): no infusion reactions
- Treatment-emergent adverse events attributable to lenzilumab ([9]; 12 patients): No treatment-emergent adverse events attributable to lenzilumab
- Ventilator-free survival vs untreated group ([9]; Kaplan-Meier, log-rank P=0.06): favored the lenzilumab cohort
- Days to resolution of fever ([9]; Lenzilumab group n = 12): 2 days
- Incidence of IMV ([9]; Lenzilumab group n = 12): (8%)
- Incidence of IMV and/or death, number of patients ([9]; Lenzilumab group n = 12): 1
- Incidence of IMV, number of patients ([9]; Lenzilumab group n = 12): 1
- Incidence of clinical improvement, number of patients ([9]; Lenzilumab group n = 12): 11
- Incidence of death ([9]; Lenzilumab group n = 12): (8%)
- Incidence of death, number of patients ([9]; Lenzilumab group n = 12): 1
- Patients free of ARDS (SpO2/FiO2 of 315 or higher) by the end of observation ([9]; Lenzilumab group n = 12): 92%
- Days to clinical improvement (median) [9, 12]: 5 days
- Days to discharge from hospital (median) [9, 12]: 5 days
- CRP reduction (mean) ([9]; after 4 days of treatment, control −0.95): 135.8
- IL-6 concentration on day 4 following lenzilumab ([9]; baseline 28.6 pg/mL): 8.52 pg/mL
- Mean absolute neutrophil count on day 4 post lenzilumab ([9]; baseline 5.1): 4.8e+09 L⁻¹
- Mean hemoglobin on day 4 post lenzilumab ([9]; baseline 12.9): 11.4 g/dL
- IL-6 reduction ([9]; baseline vs day 4): 20.1
- ALC increase (mean) ([9]; baseline vs day 4, control 0.03): 0.46 × 10*9/L
- Mean temperature reduction ([9]; baseline vs day 4, control 0.459): 1.075
- PLT increase (mean) ([9]; baseline vs day 4, control 63.2): 52.5
- Mean CRP after treatment ([9]; day 4, baseline 172.2 mg/L): 36.4 mg/L
- Cytokines and chemokines involved in the cytokine storm [9, 11]: significant reduction
- Mean SpO2/FiO2 over time post-treatment vs untreated [9, 13]: statistically significant difference
- Proportion of patients free of ARDS over time vs untreated [9, 13]: significantly increased
